Assay results from US20200079876A1 (BIOVERATIV USA, published 2020).
Where a chain is given by its changes, count along the chain named.

T1: recombinant human complement component C1s (rhC1s) (human, UniProt P09871 16-688)
T1 sequence (looked up): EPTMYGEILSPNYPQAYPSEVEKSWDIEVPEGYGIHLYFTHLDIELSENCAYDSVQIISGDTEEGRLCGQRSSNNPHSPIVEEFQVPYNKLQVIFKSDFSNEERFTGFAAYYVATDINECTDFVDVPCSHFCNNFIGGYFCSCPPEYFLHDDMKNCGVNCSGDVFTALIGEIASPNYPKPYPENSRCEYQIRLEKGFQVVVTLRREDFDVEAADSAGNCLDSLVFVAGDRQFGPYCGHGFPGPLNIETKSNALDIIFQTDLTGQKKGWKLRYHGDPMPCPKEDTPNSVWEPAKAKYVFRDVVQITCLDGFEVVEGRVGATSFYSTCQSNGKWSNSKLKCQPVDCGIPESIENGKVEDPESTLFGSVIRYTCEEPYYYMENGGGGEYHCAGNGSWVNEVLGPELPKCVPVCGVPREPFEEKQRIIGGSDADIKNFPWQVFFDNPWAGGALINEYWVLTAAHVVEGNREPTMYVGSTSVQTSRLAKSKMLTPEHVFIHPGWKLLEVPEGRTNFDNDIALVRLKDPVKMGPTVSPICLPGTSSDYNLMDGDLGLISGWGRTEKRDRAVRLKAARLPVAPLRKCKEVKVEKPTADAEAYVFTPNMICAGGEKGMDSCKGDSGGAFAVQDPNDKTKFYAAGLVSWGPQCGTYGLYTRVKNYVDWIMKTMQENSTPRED

T2: Pro-C1s
T2 construct: also called purified pro-C1s protein
T2 chain: T1 sequence (looked up)

T3: purified human activated C1s protein, two-chain form (Homo sapiens, UniProt P09871 16-688)
T3 construct: Purified protein bought from EMD Millipore; Biotin-labeled in the clone screen; also called active C1s; native C1s protein
T3 sequence: T1 sequence (looked up)

B1: antibody IPN-M18 (antibody, V domains shown)
VH: EVQLQQSGPELVKPGASVKISCKASGYSFTGYYIHWVKQSPEKSLEWIGEINPTTNDTTYNQKFKAKATLTVDKSSNTAYMQLKSLTSEDSAVYYCSRDISGPAWFAYWGQGTLVTVSA
VL: DIVLTQTTAIMSASPGEKVTMTCSASSSISYMYWFQQKPGTSPKRWIYDTSKLASGVPARFSGSGSGTSYSLTISTMEAEDAATYYCHQRSSDPTFGGGTKLEINR
notes: Mouse monoclonal antibody (NZBW hybridoma)
B2: antibody IPN-M9 (antibody, V domains shown)
VH: QVQLQQPGAELVRPGASVKLSCKVSGYTFTRYWMHWVKQRPGQGLEWIGEINPSNSDTDYNEEFKSKATLTVDKSSSTAYMHLSSLTSEDSAVYYCTIDDSAYGWFAYWGQGTLVTVSA
VL: DIVMTQSPAIMSASPGERVTMTCSASSSISYMHWYHQKPGTSPKRWIYDTSKLASGVPARFSGSGSGTSYSLTISSMEAEDAATYYCHQRSSFPTFGAGTKLELK
notes: as for B1
B3: antibody IPN-M29 (antibody, V domains shown)
VH: EVQLQQSGPELVKPGASVKISCKASGYSFTGFYMQWVKQSPEKNLEWIGEINPTTGDETYNQKFQAKATLTVDKSSSTAYMQLKSLTSEDSAVYFCASDFYDGSFAWFEYWGKDYLTVSA
VL: B2 VL with M4L, A9V, R18K, M32I, H36Q, F93Y, P94L, A98S, L104I
notes: as for B1
B4: antibody IPN-M33 (antibody, V domains shown)
VH: QVKLQQSGPELVKPGTSVRISCKTSGYSFTGYYMHWVKQSPEKSLEWIGEINPSIGDITYNQRFKAKATLTVDKSSSTAYMQLKSLTSEDSAVYYCASDYYGGGFAWFAYWGQGTLVTVSA
VL: B2 VL with P15S, R18K, S30N, H36Q, A82T, S92D, F93S, P94L, A98S, L104I
notes: as for B1
B5: antibody IPN-M24 (antibody, V domains shown)
VH: EVKLQQSGAELVRPGVSVKISCKVSGYTFTDYAMHCVKQSHAKSLEWIGVISIYNGDASYNQKFKDKATMTVDKSSSTSYMDLARLTSEESAVYNCVREAPYLITTVFYAMDYWGQGTSVTVSS
VL: B2 VL with R18K, S26N, H36Q, A59T, S92F, F93Y, P94L, A98S, L104I
notes: as for B1
B6: antibody IPN-M27 (antibody, V domains shown)
VH: B2 VH with P7S, S85N
VL: B2 VL with M4L, P8T, T73A
notes: as for B1
B7: antibody IPN-M23 (antibody, V domains shown)
VH: B2 VH with A102V
VL: B2 VL with S12F, H33P, H36P, T41P, S66F, S69F, T84P, T95P
notes: as for B1
B8: antibody IPN-M10 (antibody, V domains shown)
VH: B2 VH with A102V
VL: B2 VL with M4I
notes: as for B1
B9: antibody IPN-M1 (antibody, V domains shown)
VH: EVQLQQSGAELVRPGASVKLSCTASGFNIKDDYIHWVKQRPEQGLEWIGRIDPADDHTKYAPKFQDKATMTADTSSNTACLQLNSLTSEDTAVYYCAIYGSGWAWFPYWGQGTLVSVSA
VL: DIVLTQSTDYLAVSLGQRATISCKASQSVDYDGDSYMNWYQQKPGQPPKLLIYAASNLESGIPARFSGSGSGTDFTLNIHPVEEEDAATYYCQQSNEDPWTFGGGTKLEIK
notes: Mouse monoclonal antibody (NZBW hybridoma); of the 17, thirteen were IgG2a, one IgG2b, three IgG1; Same VL and VH as IPN-M3 and IPN-M13
B10: antibody IPN-M2 (antibody, V domains shown)
VH: EVKLQQSGAELVRPGASVKLSCTASGFNIKDDYIHWVKQRPEQGLEWIGRIDPADGHTKYAPKFQVKATITADTSSNTAYLQLSSLTSEDTAVYYCARYGYGREVFDYWGQGTTLTVSS
VL: B9 VL with T8P, D9A, Y10S, P44T, L50I, A54D, T89I
notes: Mouse monoclonal antibody (NZBW hybridoma); Same VL and VH as IPN-M8
B11: antibody IPN-M15 (antibody, V domains shown)
VH: B9 VH with Q3K, Q5E
VL: B9 VL with D1F, I2A, V3L, L4M, A64T, S71F, T106P
notes: as for B1
B12: antibody IPN-M28 (antibody, V domains shown)
VH: B9 VH
VL: B9 VL with S7T, T8P
notes: as for B1

These binders were tested against T1, recombinant human complement component … (assay: cell-based or functional assay).

inhibition of C1s protease activity (relative to nafamostat) | Binder
> 50% | B1
> 50% | B2
> 50% | B3
> 50% | B4
> 50% | B5
> 50% | B6
> 50% | B7
> 50% | B8
> 50% | B9
> 50% | B10
> 50% | B11
> 50% | B12

Biological target: T1, recombinant human complement component …
Assay: cell-based or functional assay
Remark: another data set of the same source

Inhibition of C1s Protease Activity (%), single point with clone supernatant, relative to 100 nM nafamostat | Binder
68% | B1
69% | B2
73% | B3
97% | B4
68% | B5
64% | B6
74% | B7
67% | B8
79% | B9
100% | B10
100% | B11
92% | B12

Biological target: T2, Pro-C1s
Assay: bio-layer interferometry (BLI), kinetic analysis

Kd | koff | kon | Binder
1.89 nM | 0.000395 s⁻¹ | 209000 M⁻¹ s⁻¹ | B1
4.69 nM | 0.000299 s⁻¹ | 63700 M⁻¹ s⁻¹ | B2
5.55 nM | 0.000408 s⁻¹ | 73600 M⁻¹ s⁻¹ | B3
0.3 nM | 2.52e-05 s⁻¹ | 83800 M⁻¹ s⁻¹ | B4
4.46 nM | 0.00036 s⁻¹ | 80800 M⁻¹ s⁻¹ | B5
11.1 nM | 0.000283 s⁻¹ | 25400 M⁻¹ s⁻¹ | B6
7.17 nM | 0.000347 s⁻¹ | 48400 M⁻¹ s⁻¹ | B7
7.98 nM | 0.000339 s⁻¹ | 42500 M⁻¹ s⁻¹ | B8
92.5 nM | 0.000392 s⁻¹ | 4120 M⁻¹ s⁻¹ | B9
42.3 nM | 0.000197 s⁻¹ | 4660 M⁻¹ s⁻¹ | B10
3.37 nM | 0.000194 s⁻¹ | 57500 M⁻¹ s⁻¹ | B11
16.7 nM | 0.000178 s⁻¹ | 10600 M⁻¹ s⁻¹ | B12

The binders below were run against T3, purified human activated C1s protein, … (assay: bio-layer interferometry (BLI), kinetic analysis).

Kd | koff | kon | Binder
1.98 nM | 0.00102 s⁻¹ | 517000 M⁻¹ s⁻¹ | B1
0.608 nM | 0.000361 s⁻¹ | 594000 M⁻¹ s⁻¹ | B2
1.28 nM | 0.000594 s⁻¹ | 463000 M⁻¹ s⁻¹ | B3
0.329 nM | 0.000154 s⁻¹ | 467000 M⁻¹ s⁻¹ | B4
1.01 nM | 0.000499 s⁻¹ | 492000 M⁻¹ s⁻¹ | B5
0.593 nM | 0.000394 s⁻¹ | 664000 M⁻¹ s⁻¹ | B6
0.57 nM | 0.000353 s⁻¹ | 619000 M⁻¹ s⁻¹ | B7
0.607 nM | 0.000369 s⁻¹ | 608000 M⁻¹ s⁻¹ | B8
0.26 nM | 0.000213 s⁻¹ | 817000 M⁻¹ s⁻¹ | B9
0.291 nM | 0.000279 s⁻¹ | 957000 M⁻¹ s⁻¹ | B10
0.172 nM | 0.000149 s⁻¹ | 858000 M⁻¹ s⁻¹ | B11
0.236 nM | 0.000215 s⁻¹ | 914000 M⁻¹ s⁻¹ | B12
